This is an account of results in paper PMC10085042 (PLOS ONE, 2023).

Data set [1] deals with the molecule itself. Briefly: crystal structure.
Data set [2] has as its target T1, SARS-CoV-2 nsp9 (SARS-CoV-2, UniProt P0DTD1).
T1 construct: also called nsp9_(COV19); Nsp9_(COV19)
The data set can be described thus: crystal structure. The conditions noted are these: both partners purified.

B1: SARS-CoV-2 nsp9 (natural protein, UniProt P0DTD1 4141-4253, looked up)
chain: NNELSPVALRQMSCAAGTTQTACTDDNALAYYNTTKGGRFVLALLSDLQDLKWARFPKSDGTGTIYTELEPPCRFVTDTPKGPKVKYLYFIKGLNNLNRGMVLGSLAATVRLQ
notes: also called nsp9_(COV19); Nsp9_(COV19)
As to B1, the binding result in data set [1] is “binds”.

B2: anti-nsp9 VHH_(2nsp23) (VHH)
VHH: QVQLQESGGGLVQPGGSLRLSCAASGLAFSMYTMGWFRQAPGKEREFVAMIISSGDSTDYADSVKGRFTISRDNGKNTVYLQMDSLKPEDTAVYYCAAPKFRYYFSTSPGDFDSWGQGTQVTVSS
With B2, in data set [2], the binding result is on record as “binds”.
